Values of other authors as cited in patent EP0259891B1, “[Leu 13] motilin, DNAs coding for same and methods for producing same” (KYOWA HAKKO KOGYO CO., LTD., priority 1986, dated 1995).

Details: 13th amino acid Met oxidised; M. Fujino et al., Chem. Pharm. Bull., 26, 101 (1978)

Q: For “motilin: physiologically active peptide occurring in the mammalian blood, composed of 22 amino acid residues, 13th amino acid Met”, which “motilin activity after oxidation of Met to the sulfoxide form” value is on record?
A: decreased motilin activity
